Values joined by “and” are separate entries in the source; they are usually repeats but may differ in a detail not shown here. Equal entries are not always repeated. Ends that are not written are not given here. * marks the point of attachment. Biotin = O=C1N[C@H]2[C@H](CS[C@H]2CCCCC(=O)*)N1
What was measured:
Assay in all cases: SPR
Conditions in all cases: both partners purified
[1] = molecular target: T1, MAGI1-3/6 (MBP fusion of the third of the six PDZ domains of MAGI1) (mouse, UniProt Q6RHR9-1 613-752)
T1 construct: source: E. coli BL21 DE3, purified (amylose column, Superdex 75 gel filtration)

[2] = molecular target: T2, SCRIB-3/4 (MBP fusion of the third of the four PDZ domains of SCRIB) (human, UniProt Q14160-1 997-1093)
T2 construct: also called MBP-PDZ analyte SCRIB-3/4; source: E. coli BL21 DE3, purified (amylose column, Superdex 75 gel filtration)
T2 sequence (looked up): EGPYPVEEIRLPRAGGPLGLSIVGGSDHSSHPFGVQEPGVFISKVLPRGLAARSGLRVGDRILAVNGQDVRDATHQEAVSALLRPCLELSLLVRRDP

[3] = molecular target: T3, SCRIB-34/4 (MBP fusion of the tandem of the third and fourth PDZ domains of SCRIB) (human, UniProt Q14160-1 997-1193)
T3 construct: also called MBP-PDZ analyte SCRIB-34/4; tandem PDZ construct; source: E. coli BL21 DE3, purified (amylose column, Superdex 75 gel filtration)
T3 sequence (looked up): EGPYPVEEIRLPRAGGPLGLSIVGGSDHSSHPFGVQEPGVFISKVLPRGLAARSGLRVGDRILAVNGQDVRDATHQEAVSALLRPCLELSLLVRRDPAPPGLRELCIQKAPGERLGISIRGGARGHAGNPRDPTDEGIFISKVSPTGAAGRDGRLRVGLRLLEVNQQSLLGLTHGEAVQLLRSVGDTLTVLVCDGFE

[4] = molecular target: T4, MAGI1-2/6 (MBP fusion of the second of the six PDZ domains of MAGI1) (mouse, UniProt Q6RHR9-1 448-572)
T4 construct: source: E. coli BL21 DE3, purified (amylose column, Superdex 75 gel filtration)

[5] = molecular target: T1, MAGI1-3/6 (MBP fusion of the third of …); remark: listed apart in the source
[6] = molecular target: T2, SCRIB-3/4 (MBP fusion of the third of …); remark: listed apart in the source
[7] = molecular target: T5, SCRIB-4/4 (MBP fusion of the fourth of the four PDZ domains of SCRIB) (human, UniProt Q14160-1 1097-1193)
T5 construct: also called MBP-PDZ analyte SCRIB-4/4; source: E. coli BL21 DE3, purified (amylose column, Superdex 75 gel filtration)
T5 sequence (looked up): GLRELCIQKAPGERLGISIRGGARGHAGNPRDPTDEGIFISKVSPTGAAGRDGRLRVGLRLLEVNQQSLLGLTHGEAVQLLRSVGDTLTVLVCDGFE

[8] = molecular target: T3, SCRIB-34/4 (MBP fusion of the tandem of …); remark: listed apart in the source
[9] = molecular target: T2, SCRIB-3/4 (MBP fusion of the third of …); remark: listed apart in the source
[10] = molecular target: T3, SCRIB-34/4 (MBP fusion of the tandem of …); remark: listed apart in the source

T4 sequence (Q6RHR9 448-572): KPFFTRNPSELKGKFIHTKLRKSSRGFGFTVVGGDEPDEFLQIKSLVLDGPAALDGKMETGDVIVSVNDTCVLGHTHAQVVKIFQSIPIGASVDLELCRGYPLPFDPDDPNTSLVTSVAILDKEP
T1 sequence (Q6RHR9 613-752): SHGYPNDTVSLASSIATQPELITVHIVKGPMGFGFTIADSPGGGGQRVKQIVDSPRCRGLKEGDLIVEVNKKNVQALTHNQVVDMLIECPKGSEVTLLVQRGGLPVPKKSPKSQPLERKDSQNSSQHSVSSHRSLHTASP

B1: TTC24_10 (long peptide of Tetratricopeptide repeat protein 24: the last ten residues) (peptide)
peptide: Biotin-PMESGICTIV
notes: also called TTC24 long; source: synthetic peptide (JPT Peptide Technologies)
B1 gave a Kd [1] of 37 µM, a Kd [2] of 117 µM and a Kd [3] of 49 µM.

B2: TAX1_10 (long peptide of the Trans-activating transcriptional regulatory protein of HTLV-1: the last ten residues) (peptide)
peptide: Biotin-SEKHFRETEV
notes: also called TAX1 long; HTLV1 Tax1; source: synthetic peptide (JPT Peptide Technologies)
Binder B2 has a Kd [4] of 53 µM, a Kd [5] of 1230 µM and a Kd [6] of 29 µM. The Kd [7] was 48 µM.

B3: TANC1_10 (long peptide of Tetratricopeptide repeat, ankyrin repeat and coiled-coil domain-containing protein 1: the last ten residues) (peptide)
peptide: Biotin-PKRSFIESNV
notes: also called TANC1 long; source: synthetic peptide (JPT Peptide Technologies)
B3 gave a Kd [4] of 287 µM, a Kd [6] of 39 µM and a Kd [8] of 2 µM.

B4: 16E6 (long peptide of HPV16 early protein E6: the last ten residues) (peptide)
peptide: Biotin-SSRTRRETQL
notes: source: synthetic peptide (JPT Peptide Technologies)
B4 was tested, and the Kd [4] was 3 µM and 9 µM, the Kd [6] was 18 µM and the Kd [8] was 3 µM. The Kd [9] was 15 µM and the Kd [10] was 3 µM.

— article PMC3206016, “Putting into Practice Domain-Linear Motif Interaction Predictions for Exploration of Protein Networks” (PLoS ONE, 2011)
